These results are taken from US10870872B2, “Enzymatic nucleic acid synthesis” (President and Fellows of Harvard College, priority 2016, dated 2020).

Data set [1] addresses T1, TdT (Homo sapiens, UniProt P04053). Description: pH regulation of TdT enzyme activity (extension reactions, TBE-Urea gel). The format is biochemical. The method, then:
The objective of these experiments is to determine the range of pH in which TdT is active.
1. A buffer of 50 mM Tris (base) and 50 mM Boric acid was prepared and its pH (initially at ˜8.5) was adjusted to 6.05, 6.9, 7.93, 8.96, 10.02, and 11.07 using acetic acid and sodium hydroxide. These buffers serve as 2× buffers in the experiments.
2. Extension reactions were assembled as follows:
3. Each reaction was incubated for 15 minutes and then loaded on a TBE-Urea gel with an unextended initiator for comparison.
In the following experiment, TdT was incubated at a pH for 15 minutes without the nucleotide or the initiator, it was then combined with the nucleotide and the initiator in such a way that the final pH of the mixture during polymerization would be different from that of the initial 15 min incubation.
1. A buffer of 50 mM Tris (base) and 50 mM Boric acid was prepared and its pH (initially at ˜8.5) was adjusted to 6.05, 6.9, 7.93, 8.96, 10.02, and 11.07 using acetic acid and sodium hydroxide. These buffers serve as 2× buffers in the experiment.
2. Extension reactions were assembled in two parts:
Eight different extension reactions were assembled with following pH used for the buffer in part 1 and part 2:
3. Both parts of each reaction were incubated for 15 minutes, they were then mixed to form the 20 μl total, then loaded on a TBE-Urea gel: […]

In data set [2] the target is T1, TdT. Particulars: Ashley et al., Virology 77, 367-375 (1977); cited from earlier work.

B1: TdT: template-independent DNA polymerase which extends single-stranded oligonucleotides (protein, UniProt P04053 1-509, looked up)
DNA nucleotidylexotransferase: MDPPRASHLSPRKKRPRQTGALMASSPQDIKFQDLVVFILEKKMGTTRRAFLMELARRKGFRVENELSDSVTHIVAENNSGSDVLEWLQAQKVQVSSQPELLDVSWLIECIRAGKPVEMTGKHQLVVRRDYSDSTNPGPPKTPPIAVQKISQYACQRRTTLNNCNQIFTDAFDILAENCEFRENEDSCVTFMRAASVLKSLPFTIISMKDTEGIPCLGSKVKGIIEEIIEDGESSEVKAVLNDERYQSFKLFTSVFGVGLKTSEKWFRMGFRTLSKVRSDKSLKFTRMQKAGFLYYEDLVSCVTRAEAEAVSVLVKEAVWAFLPDAFVTMTGGFRRGKKMGHDVDFLITSPGSTEDEEQLLQKVMNLWEKKGLLLYYDLVESTFEKLRLPSRKVDALDHFQKCFLIFKLPRQRVDSDQSSWQEGKTWKAIRVDLVLCPYERRAFALLGWTGSRQFERDLRRYATHERKMILDNHALYDKTKRIFLKAESEEEIFAHLGLDYIEPWERNA
With B1, the TdT enzymatic activity entry in data set [1] (pH ranges above 6 and below 11) is recorded as “highly active”; in data set [1] (pH ranges below 6 and above 11), “substantially inactivated”. Moreover, the “optimal pH” value in data set [2] was 6.85.
